Measured values from article PMC5695104.

Target: recombinant H03-IPSE (Schistosoma haematobium)
Assay: SDS-PAGE under non-reducing and reducing conditions; 4-20% gradient gel, Coomassie stain and anti-His Western blot; protein purified by IMAC from serum-free culture supernatant; run non-reduced (NR) or reduced (R)

recombinant H03-IPSE (natural protein) gave a stoichiometry N of 2.
